Results from the supplement of paper PMC10266784.

B1: library; numbered along this chain (parent)
chain: MAAAAAAAAEQQSSNGPVKKSMREKAVERRSVNKEHNSNFKAGYIPIDEDRLHKTGLRGRKGNLAICVIILLFILAVINLIITLVIWAVIRIGPNGCDSMEFHESGLLRFKQVSDMGVIHPLYKSTVGGRRNENLVITGNNQPIVFQQGTTKLSVENNKTSITSDIGMQFFDPRTQNILFSTDYETHEFHLPSGVKSLNVQKASTERITSNATSDLNIKVDGRAIVRGNEGVFIMGKTIEFHMGGNMELKAENSIILNGSVMVSTTRLPSSSSGDQLGSGDWVRYKLCMCADGTLFKVQVTSQNMGCQISDNPCGNTH

Variants of: B1
Assay: SGCB cell-surface expression functional score (HA stain, bin4 vs bin1, normalised to synonymous) (log10 ratio); higher = more cell-surface SGCB (functional)
Method in brief: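 Human beta-sarcoglycan, tagged with HA and fused to YFP, was built into codon-saturation libraries and delivered by lentivirus at MOI <0.1 into HEK293 cells that stably express alpha-, gamma- and delta-sarcoglycan. After 72 hours, YFP-positive cells were sorted and grown for 5–7 days, then stained on ice with Alexa Fluor 647 anti-HA, fixed, sorted into four 5% intensity bins and amplicon-sequenced. Each variant's functional score is the log ratio of its frequency in the highest bin to that in the lowest bin, taken as the median across codons and transductions. Transductions were done in duplicate, and synonymous variants were scaled per section to mean 0, SD 0.5.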

Variant | SGCB cell-surface expression functional score (log10)
MAAAAAAAAEQQSSNGPVKKSMREKAVERRSVNKEHNSNFKAGYIPIDEDRLHKTGLRGRKGNLAICVIILLFILAVINLIITLVIWCVIRIGPNGCDSMEFHESGLLRFKQVSDMGVIHPLYKSTVGGRRNENLVITGNNQPIVFQQGTTKLSVENNKTSITSDIGMQFFDPRTQNILFSTDYETHEFHLPSGVKSLNVQKASTERITSNATSDLNIKVDGRAIVRGNEGVFIMGKTIEFHMGGNMELKAENSIILNGSVMVSTTRLPSSSSGDQLGSGDWVRYKLCMCADGTLFKVQVTSQNMGCQISDNPCGNTH [A88C] | -0.27
MAAAAAAAAEQQSSNGPVKKSMREKAVERRSVNKEHNSNFKAGYIPIDEDRLHKTGLRGRKGNLAICVIILLFILAVINLIITLVIWDVIRIGPNGCDSMEFHESGLLRFKQVSDMGVIHPLYKSTVGGRRNENLVITGNNQPIVFQQGTTKLSVENNKTSITSDIGMQFFDPRTQNILFSTDYETHEFHLPSGVKSLNVQKASTERITSNATSDLNIKVDGRAIVRGNEGVFIMGKTIEFHMGGNMELKAENSIILNGSVMVSTTRLPSSSSGDQLGSGDWVRYKLCMCADGTLFKVQVTSQNMGCQISDNPCGNTH [A88D] | 0.41
MAAAAAAAAEQQSSNGPVKKSMREKAVERRSVNKEHNSNFKAGYIPIDEDRLHKTGLRGRKGNLAICVIILLFILAVINLIITLVIWGVIRIGPNGCDSMEFHESGLLRFKQVSDMGVIHPLYKSTVGGRRNENLVITGNNQPIVFQQGTTKLSVENNKTSITSDIGMQFFDPRTQNILFSTDYETHEFHLPSGVKSLNVQKASTERITSNATSDLNIKVDGRAIVRGNEGVFIMGKTIEFHMGGNMELKAENSIILNGSVMVSTTRLPSSSSGDQLGSGDWVRYKLCMCADGTLFKVQVTSQNMGCQISDNPCGNTH [A88G] | 0.19
MAAAAAAAAEQQSSNGPVKKSMREKAVERRSVNKEHNSNFKAGYIPIDEDRLHKTGLRGRKGNLAICVIILLFILAVINLIITLVIWHVIRIGPNGCDSMEFHESGLLRFKQVSDMGVIHPLYKSTVGGRRNENLVITGNNQPIVFQQGTTKLSVENNKTSITSDIGMQFFDPRTQNILFSTDYETHEFHLPSGVKSLNVQKASTERITSNATSDLNIKVDGRAIVRGNEGVFIMGKTIEFHMGGNMELKAENSIILNGSVMVSTTRLPSSSSGDQLGSGDWVRYKLCMCADGTLFKVQVTSQNMGCQISDNPCGNTH [A88H] | 0.49
MAAAAAAAAEQQSSNGPVKKSMREKAVERRSVNKEHNSNFKAGYIPIDEDRLHKTGLRGRKGNLAICVIILLFILAVINLIITLVIWEVIRIGPNGCDSMEFHESGLLRFKQVSDMGVIHPLYKSTVGGRRNENLVITGNNQPIVFQQGTTKLSVENNKTSITSDIGMQFFDPRTQNILFSTDYETHEFHLPSGVKSLNVQKASTERITSNATSDLNIKVDGRAIVRGNEGVFIMGKTIEFHMGGNMELKAENSIILNGSVMVSTTRLPSSSSGDQLGSGDWVRYKLCMCADGTLFKVQVTSQNMGCQISDNPCGNTH [A88E] | -0.1
MAAAAAAAAEQQSSNGPVKKSMREKAVERRSVNKEHNSNFKAGYIPIDEDRLHKTGLRGRKGNLAICVIILLFILAVINLIITLVIWFVIRIGPNGCDSMEFHESGLLRFKQVSDMGVIHPLYKSTVGGRRNENLVITGNNQPIVFQQGTTKLSVENNKTSITSDIGMQFFDPRTQNILFSTDYETHEFHLPSGVKSLNVQKASTERITSNATSDLNIKVDGRAIVRGNEGVFIMGKTIEFHMGGNMELKAENSIILNGSVMVSTTRLPSSSSGDQLGSGDWVRYKLCMCADGTLFKVQVTSQNMGCQISDNPCGNTH [A88F] | 0.14
MAAAAAAAAEQQSSNGPVKKSMREKAVERRSVNKEHNSNFKAGYIPIDEDRLHKTGLRGRKGNLAICVIILLFILAVINLIITLVILAVIRIGPNGCDSMEFHESGLLRFKQVSDMGVIHPLYKSTVGGRRNENLVITGNNQPIVFQQGTTKLSVENNKTSITSDIGMQFFDPRTQNILFSTDYETHEFHLPSGVKSLNVQKASTERITSNATSDLNIKVDGRAIVRGNEGVFIMGKTIEFHMGGNMELKAENSIILNGSVMVSTTRLPSSSSGDQLGSGDWVRYKLCMCADGTLFKVQVTSQNMGCQISDNPCGNTH [W87L] | -0.04
MAAAAAAAAEQQSSNGPVKKSMREKAVERRSVNKEHNSNFKAGYIPIDEDRLHKTGLRGRKGNLAICVIILLFILAVINLIITLVIKAVIRIGPNGCDSMEFHESGLLRFKQVSDMGVIHPLYKSTVGGRRNENLVITGNNQPIVFQQGTTKLSVENNKTSITSDIGMQFFDPRTQNILFSTDYETHEFHLPSGVKSLNVQKASTERITSNATSDLNIKVDGRAIVRGNEGVFIMGKTIEFHMGGNMELKAENSIILNGSVMVSTTRLPSSSSGDQLGSGDWVRYKLCMCADGTLFKVQVTSQNMGCQISDNPCGNTH [W87K] | 0.25
MAAAAAAAAEQQSSNGPVKKSMREKAVERRSVNKEHNSNFKAGYIPIDEDRLHKTGLRGRKGNLAICVIILLFILAVINLIITLVIMAVIRIGPNGCDSMEFHESGLLRFKQVSDMGVIHPLYKSTVGGRRNENLVITGNNQPIVFQQGTTKLSVENNKTSITSDIGMQFFDPRTQNILFSTDYETHEFHLPSGVKSLNVQKASTERITSNATSDLNIKVDGRAIVRGNEGVFIMGKTIEFHMGGNMELKAENSIILNGSVMVSTTRLPSSSSGDQLGSGDWVRYKLCMCADGTLFKVQVTSQNMGCQISDNPCGNTH [W87M] | 0.4
MAAAAAAAAEQQSSNGPVKKSMREKAVERRSVNKEHNSNFKAGYIPIDEDRLHKTGLRGRKGNLAICVIILLFILAVINLIITLVITAVIRIGPNGCDSMEFHESGLLRFKQVSDMGVIHPLYKSTVGGRRNENLVITGNNQPIVFQQGTTKLSVENNKTSITSDIGMQFFDPRTQNILFSTDYETHEFHLPSGVKSLNVQKASTERITSNATSDLNIKVDGRAIVRGNEGVFIMGKTIEFHMGGNMELKAENSIILNGSVMVSTTRLPSSSSGDQLGSGDWVRYKLCMCADGTLFKVQVTSQNMGCQISDNPCGNTH [W87T] | -0.05
MAAAAAAAAEQQSSNGPVKKSMREKAVERRSVNKEHNSNFKAGYIPIDEDRLHKTGLRGRKGNLAICVIILLFILAVINLIITLVIRAVIRIGPNGCDSMEFHESGLLRFKQVSDMGVIHPLYKSTVGGRRNENLVITGNNQPIVFQQGTTKLSVENNKTSITSDIGMQFFDPRTQNILFSTDYETHEFHLPSGVKSLNVQKASTERITSNATSDLNIKVDGRAIVRGNEGVFIMGKTIEFHMGGNMELKAENSIILNGSVMVSTTRLPSSSSGDQLGSGDWVRYKLCMCADGTLFKVQVTSQNMGCQISDNPCGNTH [W87R] | -0.12
MAAAAAAAAEQQSSNGPVKKSMREKAVERRSVNKEHNSNFKAGYIPIDEDRLHKTGLRGRKGNLAICVIILLFILAVINLIITLVIQAVIRIGPNGCDSMEFHESGLLRFKQVSDMGVIHPLYKSTVGGRRNENLVITGNNQPIVFQQGTTKLSVENNKTSITSDIGMQFFDPRTQNILFSTDYETHEFHLPSGVKSLNVQKASTERITSNATSDLNIKVDGRAIVRGNEGVFIMGKTIEFHMGGNMELKAENSIILNGSVMVSTTRLPSSSSGDQLGSGDWVRYKLCMCADGTLFKVQVTSQNMGCQISDNPCGNTH [W87Q] | 0.02
MAAAAAAAAEQQSSNGPVKKSMREKAVERRSVNKEHNSNFKAGYIPIDEDRLHKTGLRGRKGNLAICVIILLFILAVINLIITLVINAVIRIGPNGCDSMEFHESGLLRFKQVSDMGVIHPLYKSTVGGRRNENLVITGNNQPIVFQQGTTKLSVENNKTSITSDIGMQFFDPRTQNILFSTDYETHEFHLPSGVKSLNVQKASTERITSNATSDLNIKVDGRAIVRGNEGVFIMGKTIEFHMGGNMELKAENSIILNGSVMVSTTRLPSSSSGDQLGSGDWVRYKLCMCADGTLFKVQVTSQNMGCQISDNPCGNTH [W87N] | 0.58
MAAAAAAAAEQQSSNGPVKKSMREKAVERRSVNKEHNSNFKAGYIPIDEDRLHKTGLRGRKGNLAICVIILLFILAVINLIITLVIPAVIRIGPNGCDSMEFHESGLLRFKQVSDMGVIHPLYKSTVGGRRNENLVITGNNQPIVFQQGTTKLSVENNKTSITSDIGMQFFDPRTQNILFSTDYETHEFHLPSGVKSLNVQKASTERITSNATSDLNIKVDGRAIVRGNEGVFIMGKTIEFHMGGNMELKAENSIILNGSVMVSTTRLPSSSSGDQLGSGDWVRYKLCMCADGTLFKVQVTSQNMGCQISDNPCGNTH [W87P] | -0.55
MAAAAAAAAEQQSSNGPVKKSMREKAVERRSVNKEHNSNFKAGYIPIDEDRLHKTGLRGRKGNLAICVIILLFILAVINLIITLVIIAVIRIGPNGCDSMEFHESGLLRFKQVSDMGVIHPLYKSTVGGRRNENLVITGNNQPIVFQQGTTKLSVENNKTSITSDIGMQFFDPRTQNILFSTDYETHEFHLPSGVKSLNVQKASTERITSNATSDLNIKVDGRAIVRGNEGVFIMGKTIEFHMGGNMELKAENSIILNGSVMVSTTRLPSSSSGDQLGSGDWVRYKLCMCADGTLFKVQVTSQNMGCQISDNPCGNTH [W87I] | 0.48
MAAAAAAAAEQQSSNGPVKKSMREKAVERRSVNKEHNSNFKAGYIPIDEDRLHKTGLRGRKGNLAICVIILLFILAVINLIITLVIHAVIRIGPNGCDSMEFHESGLLRFKQVSDMGVIHPLYKSTVGGRRNENLVITGNNQPIVFQQGTTKLSVENNKTSITSDIGMQFFDPRTQNILFSTDYETHEFHLPSGVKSLNVQKASTERITSNATSDLNIKVDGRAIVRGNEGVFIMGKTIEFHMGGNMELKAENSIILNGSVMVSTTRLPSSSSGDQLGSGDWVRYKLCMCADGTLFKVQVTSQNMGCQISDNPCGNTH [W87H] | -0.27
MAAAAAAAAEQQSSNGPVKKSMREKAVERRSVNKEHNSNFKAGYIPIDEDRLHKTGLRGRKGNLAICVIILLFILAVINLIITLVISAVIRIGPNGCDSMEFHESGLLRFKQVSDMGVIHPLYKSTVGGRRNENLVITGNNQPIVFQQGTTKLSVENNKTSITSDIGMQFFDPRTQNILFSTDYETHEFHLPSGVKSLNVQKASTERITSNATSDLNIKVDGRAIVRGNEGVFIMGKTIEFHMGGNMELKAENSIILNGSVMVSTTRLPSSSSGDQLGSGDWVRYKLCMCADGTLFKVQVTSQNMGCQISDNPCGNTH [W87S] | 0.18
MAAAAAAAAEQQSSNGPVKKSMREKAVERRSVNKEHNSNFKAGYIPIDEDRLHKTGLRGRKGNLAICVIILLFILAVINLIITLVIYAVIRIGPNGCDSMEFHESGLLRFKQVSDMGVIHPLYKSTVGGRRNENLVITGNNQPIVFQQGTTKLSVENNKTSITSDIGMQFFDPRTQNILFSTDYETHEFHLPSGVKSLNVQKASTERITSNATSDLNIKVDGRAIVRGNEGVFIMGKTIEFHMGGNMELKAENSIILNGSVMVSTTRLPSSSSGDQLGSGDWVRYKLCMCADGTLFKVQVTSQNMGCQISDNPCGNTH [W87Y] | 0
MAAAAAAAAEQQSSNGPVKKSMREKAVERRSVNKEHNSNFKAGYIPIDEDRLHKTGLRGRKGNLAICVIILLFILAVINLIITLVIVAVIRIGPNGCDSMEFHESGLLRFKQVSDMGVIHPLYKSTVGGRRNENLVITGNNQPIVFQQGTTKLSVENNKTSITSDIGMQFFDPRTQNILFSTDYETHEFHLPSGVKSLNVQKASTERITSNATSDLNIKVDGRAIVRGNEGVFIMGKTIEFHMGGNMELKAENSIILNGSVMVSTTRLPSSSSGDQLGSGDWVRYKLCMCADGTLFKVQVTSQNMGCQISDNPCGNTH [W87V] | -0.45
